# Test results as given in patent US20240352105A1, “COMPOSITIONS AND METHODS FOR NEUTRALIZING ANTIGENS” (PACAGEN, INC, priority 2023, published 2024).
# “And” between values parts separate entries of the source, which are not always exact repeats. Identical values can stand only once.
# Experiments:
# [1] = target: recombinant His-tagged Can f2 (dog (Canis familiaris)) (UniProt O18874); assay: serum ELISA, 1:2K, Alpaca 1 block
# [2] = target: Can f2-sumo-His (dog (Canis familiaris)) (UniProt O18874); assay: serum ELISA, 1:2K, Alpaca 2 block
# [3] = target: T1, recombinant His-tagged Der p2 (dust mite, UniProt P49278 18-146); assay: serum ELISA, 1:2K, Alpaca 2 block
# T1 construct: also called Der p2-His; Der p2-HIS; not shown: His tag
# T1 sequence (looked up): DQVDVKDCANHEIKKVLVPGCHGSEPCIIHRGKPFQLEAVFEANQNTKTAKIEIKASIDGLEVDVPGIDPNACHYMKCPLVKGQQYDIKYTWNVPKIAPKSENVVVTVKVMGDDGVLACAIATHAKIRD
# [4] = target: recombinant His-tagged Can f1 (dog (Canis familiaris)) (UniProt O18873); assay: serum ELISA, 1:2K, Alpaca 2 block
# [5] = target: recombinant His-tagged Can f2 (dog (Canis familiaris)) (UniProt O18874); assay: serum ELISA, 1:2K, Alpaca 2 block
# [6] = target: Can f2-sumo-His (dog (Canis familiaris)) (UniProt O18874); assay: serum ELISA, 1:4k, Alpaca 1 block
# [7] = target: T1, recombinant His-tagged Der p2; assay: serum ELISA, 1:4k, Alpaca 1 block
# [8] = target: recombinant His-tagged Can f1 (dog (Canis familiaris)) (UniProt O18873); assay: serum ELISA, 1:4k, Alpaca 1 block
# [9] = target: recombinant His-tagged Can f2 (dog (Canis familiaris)) (UniProt O18874); assay: serum ELISA, 1:4k, Alpaca 1 block
# [10] = target: Can f2-sumo-His (dog (Canis familiaris)) (UniProt O18874); assay: serum ELISA, 1:4k, Alpaca 2 block
# [11] = target: T1, recombinant His-tagged Der p2; assay: serum ELISA, 1:4k, Alpaca 2 block
# [12] = target: recombinant His-tagged Can f1 (dog (Canis familiaris)) (UniProt O18873); assay: serum ELISA, 1:4k, Alpaca 2 block
# [13] = target: recombinant His-tagged Can f2 (dog (Canis familiaris)) (UniProt O18874); assay: serum ELISA, 1:4k, Alpaca 2 block
# [14] = target: Can f2-sumo-His (dog (Canis familiaris)) (UniProt O18874); assay: serum ELISA, 1:8K, Alpaca 1 block
# [15] = target: T1, recombinant His-tagged Der p2; assay: serum ELISA, 1:8K, Alpaca 1 block
# [16] = target: recombinant His-tagged Can f1 (dog (Canis familiaris)) (UniProt O18873); assay: serum ELISA, 1:8K, Alpaca 1 block
# [17] = target: recombinant His-tagged Can f2 (dog (Canis familiaris)) (UniProt O18874); assay: serum ELISA, 1:8K, Alpaca 1 block
# [18] = target: Can f2-sumo-His (dog (Canis familiaris)) (UniProt O18874); assay: serum ELISA, 1:8K, Alpaca 2 block
# [19] = target: T1, recombinant His-tagged Der p2; assay: serum ELISA, 1:8K, Alpaca 2 block
# [20] = target: recombinant His-tagged Can f1 (dog (Canis familiaris)) (UniProt O18873); assay: serum ELISA, 1:8K, Alpaca 2 block
# [21] = target: recombinant His-tagged Can f2 (dog (Canis familiaris)) (UniProt O18874); assay: serum ELISA, 1:8K, Alpaca 2 block
# [22] = target: Can f2-sumo-His (dog (Canis familiaris)) (UniProt O18874); assay: serum ELISA, 1:16K, Alpaca 1 block
# [23] = target: T1, recombinant His-tagged Der p2; assay: serum ELISA, 1:16K, Alpaca 1 block
# [24] = target: recombinant His-tagged Can f1 (dog (Canis familiaris)) (UniProt O18873); assay: serum ELISA, 1:16K, Alpaca 1 block
# [25] = target: recombinant His-tagged Can f2 (dog (Canis familiaris)) (UniProt O18874); assay: serum ELISA, 1:16K, Alpaca 1 block
# [26] = target: Can f2-sumo-His (dog (Canis familiaris)) (UniProt O18874); assay: serum ELISA, 1:16K, Alpaca 2 block
# [27] = target: T1, recombinant His-tagged Der p2; assay: serum ELISA, 1:16K, Alpaca 2 block
# [28] = target: recombinant His-tagged Can f1 (dog (Canis familiaris)) (UniProt O18873); assay: serum ELISA, 1:16K, Alpaca 2 block
# [29] = target: recombinant His-tagged Can f2 (dog (Canis familiaris)) (UniProt O18874); assay: serum ELISA, 1:16K, Alpaca 2 block
# [30] = target: Can f2-sumo-His (dog (Canis familiaris)) (UniProt O18874); assay: serum ELISA, 1:32k, Alpaca 1 block
# [31] = target: T1, recombinant His-tagged Der p2; assay: serum ELISA, 1:32k, Alpaca 1 block
# [32] = target: recombinant His-tagged Can f1 (dog (Canis familiaris)) (UniProt O18873); assay: serum ELISA, 1:32k, Alpaca 1 block
# [33] = target: recombinant His-tagged Can f2 (dog (Canis familiaris)) (UniProt O18874); assay: serum ELISA, 1:32k, Alpaca 1 block
# [34] = target: Can f2-sumo-His (dog (Canis familiaris)) (UniProt O18874); assay: serum ELISA, 1:64K, Alpaca 1 block
# [35] = target: T1, recombinant His-tagged Der p2; assay: serum ELISA, 1:64K, Alpaca 1 block
# [36] = target: recombinant His-tagged Can f1 (dog (Canis familiaris)) (UniProt O18873); assay: serum ELISA, 1:64K, Alpaca 1 block
# [37] = target: recombinant His-tagged Can f2 (dog (Canis familiaris)) (UniProt O18874); assay: serum ELISA, 1:64K, Alpaca 1 block
# Sequence of recombinant His-tagged Can f2 (dog (Canis familiaris)) (O18874 19-180 limits assumed): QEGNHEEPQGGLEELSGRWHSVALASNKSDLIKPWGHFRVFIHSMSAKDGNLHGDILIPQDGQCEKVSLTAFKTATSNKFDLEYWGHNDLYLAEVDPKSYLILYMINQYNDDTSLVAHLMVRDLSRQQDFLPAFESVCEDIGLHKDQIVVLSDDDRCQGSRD
# Sequence of Can f2-sumo-His (dog (Canis familiaris)) (O18874 19-180): as the sequence (O18874 19-180 limits assumed) above
# Sequence of recombinant His-tagged Can f1 (dog (Canis familiaris)) (O18873 19-174 limits assumed): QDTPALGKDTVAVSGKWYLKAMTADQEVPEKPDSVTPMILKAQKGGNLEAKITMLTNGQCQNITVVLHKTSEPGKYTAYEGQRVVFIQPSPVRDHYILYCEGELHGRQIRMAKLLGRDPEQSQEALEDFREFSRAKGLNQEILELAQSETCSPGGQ
substance,measurement,setting,value
Negative serum taken from naïve alpacas,OD at 450 nm,[1],0.093 OD and 0.099 OD
same,OD at 450 nm,[2],0.119 OD and 0.113 OD
same,OD at 450 nm,[3],0.152 OD and 0.15 OD
same,OD at 450 nm,[4],0.185 OD and 0.179 OD
same,OD at 450 nm,[5],0.143 OD and 0.133 OD
same,OD at 450 nm,[6],0.071 OD and 0.072 OD
same,OD at 450 nm,[7],0.119 OD and 0.116 OD
same,OD at 450 nm,[8],0.137 OD and 0.147 OD
same,OD at 450 nm,[9],0.077 OD and 0.075 OD
same,OD at 450 nm,[10],0.09 OD and 0.081 OD
same,OD at 450 nm,[11],0.113 OD
same,OD at 450 nm,[12],0.122 OD
same,OD at 450 nm,[13],0.108 OD and 0.101 OD
same,OD at 450 nm,[14],0.072 OD
same,OD at 450 nm,[15],0.104 OD and 0.099 OD
same,OD at 450 nm,[16],0.116 OD and 0.117 OD
same,OD at 450 nm,[17],0.076 OD
same,OD at 450 nm,[18],0.083 OD and 0.079 OD
same,OD at 450 nm,[19],0.101 OD and 0.103 OD
same,OD at 450 nm,[20],0.108 OD and 0.111 OD
same,OD at 450 nm,[21],0.099 OD and 0.084 OD
same,OD at 450 nm,[22],0.071 OD
same,OD at 450 nm,[23],0.099 OD and 0.093 OD
same,OD at 450 nm,[24],0.101 OD and 0.11 OD
same,OD at 450 nm,[25],0.075 OD and 0.076 OD
same,OD at 450 nm,[26],0.074 OD and 0.081 OD
same,OD at 450 nm,[27],0.091 OD and 0.089 OD
same,OD at 450 nm,[28],0.101 OD and 0.098 OD
same,OD at 450 nm,[29],0.08 OD and 0.075 OD
same,OD at 450 nm,[30],0.056 OD and 0.057 OD
same,OD at 450 nm,[31],0.099 OD and 0.081 OD
same,OD at 450 nm,[32],0.102 OD and 0.107 OD
same,OD at 450 nm,[33],0.069 OD and 0.062 OD
same,OD at 450 nm,[34],0.057 OD and 0.058 OD
same,OD at 450 nm,[35],0.085 OD and 0.081 OD
same,OD at 450 nm,[36],0.103 OD
same,OD at 450 nm,[37],0.064 OD and 0.069 OD
